Results published in the supplement of paper PMC12764529.
± gives the half width of the 95% confidence interval.

What was measured:
[1] = folding stability dG unfold from chymotrypsin proteolysis; higher = more stable
Procedure, shortened: (§1)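 Unfolding free energy was derived, per protease or combined, against a sequence-predicted unfolded-state K50 and a shared folded-state K50, starting from K50 inferred by Bayesian fitting of sequencing counts. Digestion with trypsin and chymotrypsin was carried out on designed mini-proteins under 80 residues without cysteine in a PA-tagged cDNA display construct. Only designs with AlphaFold2 dimer inter-PAE above 15 were kept.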

[2] = folding stability dG unfold from trypsin proteolysis; higher = more stable
Procedure, shortened: as §1

[3] = folding stability dG unfold (combined trypsin and chymotrypsin); higher = more stable
Procedure, shortened: as §1

Row | Sequence | folding stability dG unfold [1] [kcal/mol] | folding stability dG unfold [2] [kcal/mol] | folding stability dG unfold [3] [kcal/mol]
1 | SAGGGDWYKVTVKVDGNPEVAEALVEKLLEEVGEEVVFEPRPGEQTVTFYVPKELLPLLEELGIEVEPSAGG [r13_156_TrMRF] | 2.632 ± 0.02 | 2.24 ± 0.11 | 2.56 ± 0.13
2 | SAGGSAMLVFKITIKNPETNETIELEIEAETLEEAKEAIEKLIAELTGKEPTEIKIEVVEIKEEDLSAGGSA [r15_670_TrROS_Hall] | 4.47 ± 0.3 | 4.09 ± 0.35 | 4.42 ± 0.27
3 | SAGGMTLRIVLPEEEAEKLVEELKKIFPGAEIKVKKVEYNEETGEKLVVLEIKFKSKEEAEKAKKLLESAGG [r13_539_TrROS_Hall] | 3.8 ± 0.12 | 3.54 ± 0.1 | 3.73 ± 0.083
4 | SAGGAFIKDFDVEEDPNGHRKFKFELPNGWKYDITIHPDFPQIEIKPIKPIEPPPIPADDPEQAEEQSAGGS [r16_482_TrROS] | 0.429 ± 0.47 | 0.699 ± 0.11 | 0.552 ± 0.37
5 | SAGGMKIIEIEYDEETGKYKFKIKIYDKKTGKLYEIEVEVDKKTGKLSIEEIAKKIAEKLGLPKDIKISAGG [r13_362_TrROS_Hall] | 4.03 ± 0.062 | 2.8 ± 0.17 | 3.69 ± 0.3
6 | SAWKIEIKEVKRNPDGWYEITITIPFPGDPNMPVDELADEILQEFGIKDVTVEPNPDNGWIEITIRIPRSAG [r14_228_TrROS] | 2.53 ± 0.057 | 2.45 ± 0.067 | 2.48 ± 0.19
7 | MPDISRAEIKALAEKLGLPVPDGTITIKFTYGDKTITVPVDAKKDITLGDIVEAIKKKNPNIKKIEIVAEPS [r1_135_TrMRF] | 0.808 ± 0.08 | 0.956 ± 0.044 | 0.907 ± 0.077
8 | PKEIIEFAKKNGFKVKIEPVKVGSEEKAKKLAEEIKKKNNGKVFIIKNPKTGEAVYRIEIYPLKVPKNKKLS [r1_179_TrMRF] | 2.1 ± 0.22 | 1.37 ± 0.14 | 1.9 ± 0.43
9 | SAGKPRPVEIDFPMPPGFPNMPPEEMANMIARELDENGLKIEPKNMNPGEPYVRYTVEVNGKPILEITFSAG [r5_80_TrROS] | 1.51 ± 0.12 | 0.762 ± 0.081 | 1.14 ± 0.12
10 | SAGVVEITFEVPETGEPFTLVIDEDGNVTGRWPSTGDEQEWKLGDKVITFPPNMSPELAAELEKEALSESAG [r14_561_TrMRF] | 0.587 ± 0.25 | 0.66 ± 0.053 | 0.644 ± 0.18
11 | SAGGGLEEFARRLAEELARLLGGPNVPFELEGVVVFGFRLRPDGTPEPTTSRPVVVRVRFETPGGDPSAGGS [r16_156_TrMRF] | 4.09 ± 0.044 | 2.7 ± 0.11 | 3.58 ± 0.1
12 | SAGGSAGGSKIPPNQFIVRIEIKRRKPNGEKRKHEIIIPVGMPLDTLRDHAPPGYEITDIEVISAGGSAGGS [r12_597_TrROS] | 1.8 ± 0.021 | 1.17 ± 0.023 | 1.6 ± 0.05
13 | SAGGRYWKLTTPPDRPLRLVIEPVPLEDTPEEYGSRLYIPNTGKVYYFPLKYAQEILDLPWIERLEPVSAGG [r19_302_TrMRF] | 0.343 ± 0.21 | 0.903 ± 0.096 | 0.664 ± 0.11
14 | SAGGSAKPEPIKIEIGPGGNRFKATFPNGDEADVDVVKDGDKTYLLITVTSPDGKPRPFKIPLEKLSAGGSA [r15_941_TrMRF] | 2.24 ± 0.023 | 1.76 ± 0.042 | 2.1 ± 0.05
15 | SAGGMKVKVEVEITVNGKLVKKLTVEMSVEELKKLIEELLPPGAKVEVKIVEVKVEEVEVYELPEEEKSAGG [r13_491_TrROS_Hall] | 2.21 ± 0.18 | 1.81 ± 0.13 | 2.18 ± 0.32
16 | SAGGSAGGSAGGSKKKVLYIKIDVKPNMTPEEVAKLLQEKFGVKIKKVEVENGYLKIYFSAGGSAGGSAGGS [r4_469_TrROS_Hall] | 3.8 ± 0.044 | 2.82 ± 0.062 | 3.49 ± 0.048
17 | SSSVSVTRTRDPRTGRLVVTVSMNYEDDPEEAVEAAKALLEAAGLDVAEVLSITVDPSTGTVTIPIAVAPSA [r9_876_JUSTAS] | 3.15 ± 0.076 | 2.79 ± 0.062 | 3.05 ± 0.064
18 | SAKKIPLDDAKIRIKMESPNGMIMEFPIKNVQIDPKNGKLSFEFPMRIYNPDNGKERPMRMKIDEIVPVSAG [r14_825_TrROS] | 0.299 ± 0.25 | 0.107 ± 0.37 | 0.22 ± 0.19
19 | SAGGSAMTTIVKTEPPTLDEEGNPYIRLTIKFPNGGTTTITLAPSELPQYLADLPPGFEVEEINPLSAGGSA [r15_339_JUSTAS] | 2.69 ± 0.038 | 2.41 ± 0.11 | 2.65 ± 0.11
20 | MEKVLILAKIKLKGPDGEEAEIDFAVEISPEEATPELLKKVREEAEEIAEALKEKGYEVELEVEVVKLGEES [r1_221_TrMRF] | 2.88 ± 0.24 | 3.62 ± 0.48 | 3.25 ± 0.65
21 | SAGGSAGGSAGGKNKYYVRVKIKNPNGRTRKINFPFDDPDQIKEQAQKEGWKIDEVEPVSAGGSAGGSAGGS [r10_882_TrROS] | -0.064 ± 0.29 | -0.319 ± 0.25 | -0.121 ± 0.18
